Experimental data taken from paper PMC3159454.
Where a chain is given by its changes, count along the chain named.

Columns and labels:
[1] = molecular target: T1, Elk-ets (HA-tagged ETS domain) (UniProt P19419 5-86); assay: native gel EMSA
T1 sequence: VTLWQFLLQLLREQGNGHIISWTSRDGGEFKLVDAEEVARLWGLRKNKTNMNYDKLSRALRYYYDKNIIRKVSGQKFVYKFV

[2] = molecular target: T2, ets-DM (HA-Elk-ets DNA-binding mutant) (UniProt P19419 5-86, R65A;Y66F); assay: native gel EMSA
T2 sequence: T1 sequence with R61A, Y62F

Elk-ΔA = molecular target: T3, Elk-ΔA (UniProt P19419 1-253); assay: EMSA
T3 sequence: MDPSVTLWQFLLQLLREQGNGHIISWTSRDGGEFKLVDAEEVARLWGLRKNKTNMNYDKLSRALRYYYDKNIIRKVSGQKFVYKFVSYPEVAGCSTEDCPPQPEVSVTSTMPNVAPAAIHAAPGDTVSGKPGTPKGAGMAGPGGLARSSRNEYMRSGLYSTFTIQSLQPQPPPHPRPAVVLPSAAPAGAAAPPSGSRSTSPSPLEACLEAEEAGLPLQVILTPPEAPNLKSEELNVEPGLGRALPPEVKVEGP

[3] = molecular target: PU.1-ets (HA-tagged ETS domain) (UniProt P17947 170-253); assay: EMSA
[4] = molecular target: T1, Elk-ets (HA-tagged ETS domain); assay: EMSA

B1: CON control duplex (dsDNA)
DNA 1: AGACCAACATGAATTACGACAGGCTCAGCCGGG
DNA 2: CCCGGCTGAGCCTGTCGTAATTCATGTTGGTCT
- binding result [1]: no binding

B2: E74 duplex (dsDNA)
DNA 1: CTAGAGCTGAATAACCGGAAGTAACTCAT
DNA 2: CTAGATGAGTTACTTCCGGTTATTCAGCT
- binding result [2]: no binding
- binding result (Elk-ΔA): binds
- binding result [3]: binds
- binding result [4]: binds
